Laboratory results reported in patent publication US10465005B2, “JAML specific binding agents, antibodies, and uses related thereto” (Emory University, priority 2011, dated 2019).
Entries after “also recorded” stand apart in the source; their conditions may differ.

Key:
PMN = experiment: Surface JAML on PMN after activation (flow cytometry); type: cell-based, human
Protocol: Freshly isolated PMN, not treated (No Tx), or treated with either fMLF (100 nM) or PMA (200 nM) in suspension for 15 minutes at 37° c. were fixed with 1% paraformaldehyde, stained for JAML (DW100) and CD11b/CD18 (CBRM 1/29) and analyzed for surface expression by flow cytometry.
Since prior to transepithelial migration PMNs exit the blood vessels, whether JAML expression on PMNs would be preserved during migration across endothelial cells (HDMECs) towards a 10 μM fMLF, as described previously was evaluated. Indeed under similar conditions only a small portion of surface JAML was lost, but most of it was still detectable on PMN surface (FIG. 3B).
Thus whether PMN activation alone is sufficient to induce the loss of surface JAML or whether direct contact with the epithelium is required was examined. To test this, the expression of JAML was analyzed on PMNs that were stimulated in suspension with fMLF (100 μM) and PMA (200 nM). PMNs were allowed to adhere to epithelial cells for 1 hour. The loss of JAML could be correlated to the degree of PMN activation. […] This was again confirmed by immunofluorescence (FIG. 4B). PMN adhesion to epithelium in the absence of proinflamatory stimulus (as measured by flow cytometry, gating on Mac-1 positive PMNs) was also sufficient to induce a partial loss of surface JAML (FIG. 4C), in agreement with the small loss of surface JAML observed after migration through endothelial cells (FIG. 3B). […] Next, the observed loss of JAML during PMN activation may be due to its shedding from PMN surface and thus would be detectable in the supernatant of activated cells. To test this hypothesis, two antibodies, DW100 and DW216 that recognize two different epitopes of JAML were used in a sandwich ELISA assay to capture solubilized molecules in the supernatant of activated PMN.

T84 monolayers = experiment: Epithelial barrier recovery after calcium switch (TER, dextran flux); type: cell-based, human; conditions: 30 μg/ml, 20 m/ml, up to 24 hours, FIG. 9A
Protocol: T84 monolayers grown on permeable supports were subjected to transient calcium depletion by preincubation in Ca2+ free buffer (PBS) for 40 min to disassemble tight junctions, followed by switching back to calcium containing medium without (No Tx), or with sJAML or a control recombinant IgSF protein sSIRPa (30 μg/ml). Barrier recovery was measured as transepithelial resistance (TER) at time points as indicated.
FIG. 9B. Flux of fluorescently labeled dextran (3 k) was measured at the 24 h time point for conditions as described in panel A. N=4.
Since CAR plays a role in epithelial barrier, the effect of soluble JAML on epithelial barrier recovery was tested. Transepithelial resistance (TER) recovery experiments and dextran flux assay were performed with T84 cells grown in transwells (FIG. 9) as well as with Caco2 cells. […] As a negative control, a related soluble IgSF molecule SIRPalpha had no effect.

[1] = tested on: T84 epithelial monolayers; experiment: Scratch wound closure of epithelial monolayers; type: cell-based, human; conditions: T84; mAb 30 μg/ml; FIG. 10A,B
Protocol: T84 epithelial monolayers grown to confluence were wounded by introduction of a single linear scratch wound using a 20-μl plastic pipette tip. Wound closure was monitored over 72 h in the absence or presence of PMN or sJAML. The scale bar is 10 μm.
Whether JAML binding to CAR would affect epithelial wound restitution was investigated. […] If soluble JAML interactions with CAR play a role, the effect could be reversed with the addition of blocking DW100 mAb.
Cell grown in 24-well tissue culture plates received one linear wound using a 20-μl plastic pipette tip attached to low suction. Wounded monolayers were washed once with PBS to remove detached cells and debris, and incubated with the appropriate stimulus added to the medium. The rate of migration was measured by determining the wound area immediately after wounding (t=0) and at the indicated time points. The data are presented as the area of the wound at each time point normalized to t=0. The experiments were carried out in triplicates per condition, and the data shown are representative of 4 independent experiments.

[2] = target: T1, CHO-JAML-His and CHO JAML-6xMyc (Homo sapiens, UniProt Q86YT9); experiment: FACS staining of stably transfected CHO-JAML cell lines; type: binding; conditions: FIG. 1A
T1 construct: 6xMyc (cell line CHO JAML-6xMyc); expressed in transfected cells
T1 sequence (Q86YT9 20-394): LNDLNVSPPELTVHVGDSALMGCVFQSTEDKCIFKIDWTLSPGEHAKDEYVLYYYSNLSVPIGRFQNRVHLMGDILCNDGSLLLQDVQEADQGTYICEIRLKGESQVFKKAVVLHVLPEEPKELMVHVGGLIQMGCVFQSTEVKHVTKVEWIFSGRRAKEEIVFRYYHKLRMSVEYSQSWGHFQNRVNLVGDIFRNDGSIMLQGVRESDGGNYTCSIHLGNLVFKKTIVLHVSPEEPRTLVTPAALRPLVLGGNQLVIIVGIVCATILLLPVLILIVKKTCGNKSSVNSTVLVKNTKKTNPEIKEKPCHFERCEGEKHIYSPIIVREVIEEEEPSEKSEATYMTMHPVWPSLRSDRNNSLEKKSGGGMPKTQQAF
Excerpt: BALB/c mice were immunized with recombinant soluble fragment of JAML.D1D2 tagged with 10 His residues at the C-terminus (sJAML-His), generated in H293T cells and purified by Nickel chromatography. After the 4th boost, mice were given a final immunization and, 3 days later, spleen cells harvested and fused to the myeloma cell line P3U1. Hybridomas were selected in HAT medium and supernatants of clones were subjected to screening first to immobilized, soluble JAML and followed by staining of CHO-JAML stable transfectants. Three hybridomas were selected and antibodies were purified from ascites. FACS staining profiles of mAbs using two different, stably transfected CHO-JAML cell lines, CHO-JAML-His and CHO JAML-6xMyc, both membrane bound and tagged at the C-terminus with either 10-His or 6xMyc. Control antibody is 9E10 anti Myc.
These hybridomas were further tested for reactivity against tagged, full-length JAML expressed on the surface of cultured cells. CHO-JAML-6XMyc transfectants were aliquoted and pelleted into round bottom 96 well plates. 100 μl hybridoma supernatants were added for 1 hr at 4° C. Cells were washed and positive wells were identified by FACS analysis using Goat anti Mouse-AlexaFluor 488. Cells from positive wells were cloned by limiting dilution at one cell per well and expanded first in DMEM-10% FBS containing HAT then in medium containing HT (ATCC) and later DMEM, 10% FBS. The cloned cells of interest were sent to Harlan Laboratories (Indianapolis, Ind.) for production of ascites. Antibodies were purified from ascitic fluid using proteinA-Sepharose (GE Healthcare) followed by dialysis against PBS. Aliquots were frozen at −80° C. Ig subclass of each antibody was determined by using the IsoStrip Mouse Monoclonal Antibody Isotyping Kit (Roche Applied Science). […]
Cells suspensions of adherent cells were prepared by trypsinization with Trypsin-EDTA (Sigma). […] After final washes, cells were analyzed using FACS Calibur. […] All samples were stained for JAML (DW100 mAb) and CD11b/CD18 (CBRM 1/29), and only CD11b/CD18 positive cells (PMNs) were analyzed for JAML expression.

JAML binding with CAR = target: T2, JAML binding with CAR (Homo sapiens, UniProt Q86YT9); experiment: CAR binding assay (ELISA, CAR-GST on immobilized sJAML-His); conditions: CAR-GST 10 μg/ml on immobilized sJAML-His preincubated with antibody; FIG. 1C
T2 construct: soluble JAMLD1D2 was truncated and tagged after residue Leucine259; made in house; host or cells: HEK293T (sJAML-His)
T2 sequence (Q86YT9 20-259): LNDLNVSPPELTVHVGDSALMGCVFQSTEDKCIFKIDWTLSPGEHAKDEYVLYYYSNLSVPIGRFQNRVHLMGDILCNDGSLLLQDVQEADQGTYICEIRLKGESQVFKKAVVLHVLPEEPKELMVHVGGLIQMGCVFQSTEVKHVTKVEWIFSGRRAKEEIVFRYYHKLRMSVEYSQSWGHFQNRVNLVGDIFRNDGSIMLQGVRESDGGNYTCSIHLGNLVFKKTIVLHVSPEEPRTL
Protocol: FIG. 1C. CAR binding assay: sJAML-His was coated in Immulon II microtiter microtiter wells overnight, at 4° C. Microtiter wells were washed and blocked and 100 μl antibody solutions were added to wells for 1 hour RT. After washing, CAR-GST was added at 10 μg/ml for 1 hour RT, washed and the assay was developed with HRP conjugated goat anti GST followed by ABTS and OD measurement at 405 nm.
(§1) Because certain antibodies recognize the membrane distal domain of JAML, their ability to inhibit binding to CAR was tested. By ELISA, the levels of soluble CAR-GST bound to immobilized sJAML-His preincubated with anti JAML antibodies was measured. […] Thus, these antibodies recognize three different epitopes on JAML and that both DW100 and DW55 bind epitopes close to the JAML binding site. Using a cell aggregation assay, the possibility that DW100 could inhibit the binding of JAML to CAR expressed on the surface of cells was examined. […] This again confirms previously described JAML binding to CAR, as well as the specificity of DW100 (blocking) and DW216 (non-blocking) Abs to JAML.

[3] = tested on: CHO-JAML and CHO-CAR cells; experiment: CHO-JAML / CHO-CAR cell aggregation assay; type: cell-based; conditions: antibodies 30 μg/ml; 1 hour at 37° C.; FIG. 1D
Protocol: FIG. 1D. CHO-K1 cells stably transfected with either JAML (CHO-JAML) or CAR (CHO-CAR) proteins were allowed to aggregate (1 hour at 37° C. on a shaker at 50 RPM) separately (1×10^6 cells/BSA coated 3 ml Petri dish), or as a mix (5×10^5 each cell type/dish), in the absence or presence of anti-JAML monoclonal antibodies DW100, DW55 and DW216 (30 μg/ml). The number of clusters (left) and the area of the clusters (right) were quantified in 7 randomly chosen fields using light microscopy. The results are representative of four independent experiments. CHO-CAR and CHO-JAML in mixed cultures formed large aggregates.
as §1

In the case of fMLF, the “JAML expression on PMN after fMLF” value (PMN; 10 μM fMLF) is reported as “no significant effect on JAML expression”, the “surface JAML on PMN after fMLF” value (PMN; 100 μM fMLF, FIG. 4A as described in Example 4) is reported as “partial but significant loss of JAML” and the “surface JAML on PMN after fMLF” value (PMN; fMLF 100 nM, suspension, 15 minutes at 37° c., FIG. 4A) is reported as “partial loss of JAML”.

With “SIRPalpha: control recombinant IgSF protein, related soluble IgSF molecule [reference compound]” the “epithelial barrier recovery (TER) after calcium depletion” value (T84 monolayers) was “had no effect”.

B1: DW216: monoclonal anti-human JAML antibody (IgG1,κ), non-blocking; VH SEQ ID NO:21, VL SEQ ID NO:24 (antibody, V domains shown)
VH: DVQLVESGPGLVKPSQSLSLTCTVTGYSITSDYAWNWIRQFPGNKLEWMGYISSSGNSNYNPSLKSRISITRDTSKNQFFLQLNSVTTEDTATYYCAGATGYSMDYWGQGTTLTVK
VL: VLTQSPAIMSASLGERVTMTCTASSSVSSSYLHWYQQKPGSSPKLWIYSTSNLASGVPARFSGSGSGTSYSLTISSMEAEDAATYYCHQYHRSPFTFGSGTKLELK
In the case of B1, the “reversal of PMN or sJAML inhibition of wound closure” value [1] is reported as “but not DW216 mAb (30 μg/ml) significantly improved wound restitution”, the “FACS staining of CHO-JAML transfectant lines” value [2] is reported as “stained both transfectant lines equally well” and the “inhibition of CAR binding to JAML” value (JAML binding with CAR) is reported as “did not inhibit at all; also recorded: whereas DW216 did not”.

B2: DW55: monoclonal anti-human JAML antibody (IgG2b,κ); VH SEQ ID NO:20, VL SEQ ID NO:23 (antibody, V domains shown)
VH: CDVQLVESGGGLVQPGGSRKLSCAASGFTFSDYGMAWVRQAPGKGPEWVAFISNLAYSIYYSDTVTGRFTISRENAKNTLYLEMSSLRSEDTAMYYCARGDYSGGMMDYWGQGT
VL: VLTSQPASLAVSLGQRATISYRASKSVSTSGYSYMHWNQQKPGQPPRLLIYLVSNLESGVPARFSGSGSGTDFTLNIHPVEEEDAATYYCQHIRELTRSEGGPSWK
B2 was tested, and the “FACS staining of CHO-JAML transfectant lines” value [2] was “stained both transfectant lines equally well” and the “inhibition of CAR binding to JAML” value (JAML binding with CAR) was “inhibit human JAML binding with CAR; also recorded: partially inhibited binding; also recorded: partly inhibitory”.

B3: soluble CAR: purified extracellular domain of CAR that was tagged with GST (protein)
chain: LSITTPEEMIEKAKGETAYLPCKFTLSPEDQGPLDIEWLISPADNQKVDQVIILYSGDKIYDDYYPDLKGRVHFTSNDLKSGDASINVTNLQLSDIGTYQCKVKKAPGVANKKIHLVVLVKPSGARCYVDGSEEIGSDFKIKCEPKEGSLPLQYEWQKLSDSQKMPTSWLAEMTSSVISVKNASSEYSGTYSCTVRNRVGSDQCLLRLNVVPPSNKAG
modifications: left off: a dimerising Fc or GST
In the case of B3, the “aggregation of mixed CHO-CAR and CHO-JAML cultures (number and size of clusters)” value [3] is reported as “blocked”.
